Laboratory results reported in patent publication EP0871495B1.

Target: MHC class II antigen on the Raji B cell line
Assay: cell-based or functional assay

Work on “CD4:ζ chimera (CD4 extracellular domain fused to human T cell receptor ζ chain)” yielded a cytolysis (51Cr release) of Raji (MHC class II+) cells by CTL expressing CD4:ζ of 5 % cytolysis.
